# Measurements reported in patent publication US9266964.
# Substitutions are numbered along the chain they refer to.
# B1: M200-A10 (Fab, V domains shown)
# VH: EVQLLESGGGLVQPGGSLRLSCAASGFTFSHYIMMWVRQAPGKGLEWVSGIYSSGGITVYADSVKGRFTISRDNSKNTLYLQMNSLRAEDTAVYYCAYRRTGVPRRDSFDIWGQGTMVTVSS
# VL: DIQMTQSPSTLSASVGDRVTITCRASQSISSWLAWYQQKPGKAPNLLIYKASTLESGVPSRFSGSGSGTEFTLTISSLQPDDFATYYCQQYNTYWTFGQGTKVEIK
# notes: Tested as Fab; printed HC runs into CH1
# B2: M196-C06 (Fab, V domains shown)
# VH: B1 VH with H31I, I33S, M35H, G50S, S53P, G55R, I57M, V59W, V103I, S108A
# VL: B1 VL
# notes: as for B1
# B3: M196-D12 (Fab, V domains shown)
# VH: B1 VH with H31R, I33S, M35R, G50V, S53P, I57Q, V59Y, V103I, S108A
# VL: B1 VL
# notes: as for B1
# B4: M197-A09 (Fab, V domains shown)
# VH: B1 VH with H31V, I33N, M35H, G50S, S53P, I57M, V59T, V103I, S108A
# VL: B1 VL
# notes: as for B1
# B5: M198-A06 (Fab, V domains shown)
# VH: B1 VH with H31I, I33S, M35H, G50S, I57P, V59K, V103I, S108A
# VL: B1 VL
# notes: as for B1
# B6: M198-D12 (Fab, V domains shown)
# VH: B1 VH with H31L, I33V, M35Y, G50Y, Y52V, S53P, I57P, V59A, V103I, S108A
# VL: B1 VL
# notes: as for B1
# B7: M198-F09 (Fab, V domains shown)
# VH: B1 VH with H31V, I33N, M35H, G50S, S53P, I57M, V59Y, V103I, S108A
# VL: B1 VL
# notes: as for B1
# B8: M199-A08 (Fab, V domains shown)
# VH: B1 VH with T101I, S108E
# VL: B1 VL
# B9: M200-D03 (Fab, V domains shown)
# VH: B1 VH with Y98W, T101I, I111M
# VL: B1 VL
# notes: as for B1
# B10: M201-A07 (Fab, V domains shown)
# VH: B1 VH with S108E
# VL: B1 VL
# notes: as for B1
# B11: M202-A12 (Fab, V domains shown)
# VH: B1 VH with R99Q, D110N
# VL: B1 VL
# notes: as for B1
# B12: M202-B03 (Fab, V domains shown)
# VH: B1 VH with S108D
# VL: B1 VL
# notes: as for B1
# B13: M202-C01 (Fab, V domains shown)
# VH: B1 VH with R106W, S108D
# VL: B1 VL
# notes: as for B1
# B14: M202-C09 (Fab, V domains shown)
# VH: B1 VH with T101I, S108D
# VL: B1 VL
# notes: as for B1
# B15: M202-D09 (Fab, V domains shown)
# VH: B1 VH with T101I
# VL: B1 VL
# notes: as for B1
# B16: M202-H03 (Fab, V domains shown)
# VH: B1 VH with Y98F, R106W, S108D
# VL: B1 VL
# notes: Tested as Fab; printed HC runs into CH1; Same CDRs as M202-C01, differs at the residue before HV-CDR3 (F for Y)
# B17: X69-C09 (IgG) (antibody, V domains shown)
# VH: EVQLLESGGGLVQPGGSLRLSCAASGFTFSAYSMIWVRQAPGKGLEWVSYIRPSGGRTTYADSVKGRFTISRDNSKNTLYLQMNSLRAEDTAVYYCARGGLLLWFRELKSNYFDYWGQGTLVTVSS
# VL: DIQMTQSPSSLSAFVGDRVTITCRASQPIDNYLNWYHQKPGKAPKLLIYAASRLQSGVPSRLSGSGFGTDFTLTISSLQPEDFGNYYCQQSYTVPYTFGGGTKVEIR
# notes: Full length human IgG1; printed HC runs into CH1; also called Parental
# B18: X67-B03 (IgG) (antibody, V domains shown)
# VH: B17 VH with F105S
# VL: B17 VL
# notes: printed HC runs into CH1
# B19: X67-C03 (IgG) (antibody, V domains shown)
# VH: B17 VH with F105M
# VL: B17 VL
# notes: printed HC runs into CH1
# B20: X67-C09 (IgG) (antibody, V domains shown)
# VH: B17 VH with F105G
# VL: B17 VL
# notes: printed HC runs into CH1
# B21: X67-E04 (IgG) (antibody, V domains shown)
# VH: B17 VH with F105D
# VL: B17 VL
# notes: printed HC runs into CH1
# B22: X67-F01 (IgG) (antibody, V domains shown)
# VH: B17 VH with F105Q
# VL: B17 VL
# notes: printed HC runs into CH1
# B23: X67-F10 (IgG) (antibody, V domains shown)
# VH: B17 VH with F105T
# VL: B17 VL
# notes: printed HC runs into CH1
# B24: X67-H04 (IgG) (antibody, V domains shown)
# VH: B17 VH with F105E
# VL: B17 VL
# notes: printed HC runs into CH1; also called 559A-X67-H04
# B25: DX-2922 (antibody, V domains shown)
# VH: EVQLLESGGGLVQPGGSLRLSCAASGFTFSHYLMTWVRQAPGKGLEWVSYISPSGGHTIYADSVKGRFTISRDNSKNTLYLQMNSLRAEDTAVYYCARVARGIAARSRTSYFDYWGQGTLVTVSS
# VL: EIVLTQSPGTLSLSPGERATLSCRTSQFVNSNYLAWYQQKPGQAPRLLIYGASSRATGIPDRFSGSGSGTDFTLTISRLEPEDFAVYYCQQSSRTPWTFGQGTKVEIK
# notes: also called X101-A01; 559A-X0101-A01
# B26: X115-B07 (antibody, V domains shown)
# VH: B25 VH with R98M, A100G, R101Q, A104R, A105G, D113A, Y114Q
# VL: B25 VL
# notes: also called 559A-X115-B07; 559A-X0115-B07
# B27: X115-F02 (Fab, V domains shown)
# VH: B1 VH with T101I, S108E
# VL: B1 VL with N45K
# notes: also called 559A-X115-F02; 559A-X0115-F02
# B28: X115-A03 (antibody, V domains shown)
# VH: B1 VH with Y98W, T101I, I111M
# VL: B1 VL with N45K
# notes: also called 559A-X115-A03; 559A-X0115-A03
# B29: X115-D01 (antibody, V domains shown)
# VH: B1 VH with H31I, I33S, M35H, G50S, S53P, G55R, I57M, V59W, V103I, S108A
# VL: B1 VL with N45K
# notes: also called 559A-X115-D01; 559A-X0115-D01
# B30: X115-D05 (antibody, V domains shown)
# VH: B25 VH with H31D, L33M, T35A, Y50S, S52V, I59H
# VL: B25 VL
# notes: only variable domains given; also called 559A-X115-D05; 559A-X0115-D05
# B31: X115-E09 (antibody, V domains shown)
# VH: B25 VH with R101Q, Y111S, F112V, Y114Q
# VL: B25 VL
# notes: only variable domains given; also called 559A-X115-E09; 559A-X0115-E09
# B32: X115-H06 (antibody, V domains shown)
# VH: B25 VH with R101Q, A104S
# VL: B25 VL
# notes: only variable domains given; also called 559A-X115-H06; 559A-X0115-H06
# Columns and labels:
# human plasma kallikrein [1] = target: T1, human plasma kallikrein (human, UniProt P03952 20-390; P03952 391-638); experiment: cell-based or functional assay
# human plasma kallikrein [2] = target: T1, human plasma kallikrein; experiment: Ki,app, inhibition of human pKal enzyme activity
# human plasma kallikrein [3] = target: T2, human plasma kallikrein (human, UniProt P03952 20-390; P03952 391-638); experiment: Ki,app as an IgG, steady state enzyme kinetics, inhibition of human pKal
# T2 construct: two disulfide linked chains; also called pKal; human pKal
# [4] = target: T3, pKal catalytic domain Mutant 1 (human, UniProt P03952 391-638, limits assumed); experiment: apparent Ki (Ki,app), enzyme inhibition, pKal catalytic domain Mutant 1
# T3 construct: domain: catalytic domain; Expressed in Pichia pastoris, purified by IMAC; not shown: His tag fusion
# T3 sequence (P03952 other isoform, or with tags, fused parts or gaps mutant limits assumed): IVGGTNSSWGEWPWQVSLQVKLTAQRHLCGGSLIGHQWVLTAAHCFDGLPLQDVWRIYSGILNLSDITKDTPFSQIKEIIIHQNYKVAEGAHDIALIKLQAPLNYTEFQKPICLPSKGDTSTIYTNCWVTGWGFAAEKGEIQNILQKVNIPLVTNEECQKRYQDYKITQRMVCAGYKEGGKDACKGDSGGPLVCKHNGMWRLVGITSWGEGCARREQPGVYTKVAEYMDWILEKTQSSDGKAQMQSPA
# Procedure: (§1) Apparent Inhibition constants (K_{i,app} values) were measured by pre-incubating enzyme and inhibitor solutions prior to initiating the reactions with substrate. Enzyme and inhibitor were pre-incubated for 2 hours at 30° C. in a 96-well plate by adding 10 μL of a 10× enzyme solution and 10 μL of 10× inhibitor solutions to 70 μL of reaction buffer. Reactions were initiated by the addition of 10 μL of a 10× concentrated stock of substrate, and were monitored at 30° C. in a fluorescence plate reader with the excitation and emission wavelengths set at 360 nm/460 nm, respectively. Kinetic data were acquired by the increase in fluorescence, and initial rates for each condition were plotted against the total inhibitor concentration. The data was fit to the following equation for tight binding inhibitors: […]
# [5] = target: T4, pKal catalytic domain Mutant 2 (human, UniProt P03952 391-638, limits assumed); experiment: apparent Ki (Ki,app), enzyme inhibition, pKal catalytic domain Mutant 2
# T4 construct: domain: catalytic domain; Expressed in Pichia pastoris, purified by IMAC; not shown: His tag fusion
# T4 sequence (P03952 other isoform, or with tags, fused parts or gaps mutant limits assumed): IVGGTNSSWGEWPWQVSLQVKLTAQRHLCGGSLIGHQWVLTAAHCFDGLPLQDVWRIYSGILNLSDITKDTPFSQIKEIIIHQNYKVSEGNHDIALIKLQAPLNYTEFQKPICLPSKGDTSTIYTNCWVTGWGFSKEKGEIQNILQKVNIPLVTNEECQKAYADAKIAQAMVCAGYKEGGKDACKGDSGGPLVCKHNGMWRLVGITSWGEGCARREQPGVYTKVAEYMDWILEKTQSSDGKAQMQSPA
# Procedure: as §1
# [6] = target: T5, wild type pKal catalytic domain (human, UniProt P03952 391-638, limits assumed); experiment: apparent Ki (Ki,app), enzyme inhibition, wild type pKal catalytic domain
# T5 construct: domain: catalytic domain; also called WT cat; Domain; not shown: His tag fusion
# T5 sequence (P03952 391-638 limits assumed): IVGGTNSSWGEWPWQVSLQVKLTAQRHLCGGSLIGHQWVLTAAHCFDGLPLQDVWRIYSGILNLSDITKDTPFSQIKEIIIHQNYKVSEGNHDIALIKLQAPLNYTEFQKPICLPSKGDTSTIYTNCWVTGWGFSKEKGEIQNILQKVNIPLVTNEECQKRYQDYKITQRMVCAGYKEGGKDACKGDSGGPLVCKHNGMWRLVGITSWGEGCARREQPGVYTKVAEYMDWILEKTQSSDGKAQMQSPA
# Procedure: as §1
# [7] = target: T6, human plasma kallikrein (full length, active) (human, UniProt P03952 20-390; P03952 391-638); experiment: Ki,app: enzyme inhibition, fluorescent substrate, 2 h pre-incubation at 30 C, tight-binding fit
# T6 construct: two disulfide linked polypeptides; also called Full length pKal; pKal
# T6 sequence (P03952 20-390, chain 1 of 2): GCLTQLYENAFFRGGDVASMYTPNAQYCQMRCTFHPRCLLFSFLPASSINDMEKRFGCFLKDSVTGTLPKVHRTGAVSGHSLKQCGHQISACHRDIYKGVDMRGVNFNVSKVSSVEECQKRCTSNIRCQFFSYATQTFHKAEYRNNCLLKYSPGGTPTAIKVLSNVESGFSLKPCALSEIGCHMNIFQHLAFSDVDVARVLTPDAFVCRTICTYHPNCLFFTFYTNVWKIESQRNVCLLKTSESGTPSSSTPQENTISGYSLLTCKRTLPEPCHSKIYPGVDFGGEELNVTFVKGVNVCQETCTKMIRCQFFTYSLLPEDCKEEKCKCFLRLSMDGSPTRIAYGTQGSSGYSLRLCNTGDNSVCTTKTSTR
# T6 sequence (P03952 391-638, chain 2 of 2): as the sequence (P03952 391-638 limits assumed) above
# Procedure: as §1
Binder,% inhibition at 10 nM (human plasma kallikrein [1]) [%],Ki (human plasma kallikrein [2]) [nM],also measured
B1,94.3,0.3,–
B2,97.2,0.1,–
B3,94.1,0.2,–
B4,94.9,0.6,–
B5,96.1,0.4,–
B6,63.5,0.7,–
B7,96.9,0.2,–
B8,96.4,0.06,–
B9,95.9,0.1,–
B10,95.7,0.1,–
B11,97.5,0.2,–
B12,93.1,0.3,–
B13,96.3,0.1,–
B14,92.3,0.3,–
B15,95,0.4,–
B16,95.7,0.1,–

Binder,% inhibition at 10 nM (human plasma kallikrein [1]) [%],Ki (human plasma kallikrein [2]) [nM],also measured
B17,–,–,Ki (human plasma kallikrein [3]): 0.2 nM
B18,–,–,Ki (human plasma kallikrein [3]): 2.1 nM
B19,–,–,Ki (human plasma kallikrein [3]): 0.7 nM
B20,–,–,Ki (human plasma kallikrein [3]): 8.6 nM
B21,–,–,Ki (human plasma kallikrein [3]): 1.3 nM
B22,–,–,Ki (human plasma kallikrein [3]): 0.9 nM
B23,–,–,Ki (human plasma kallikrein [3]): 1.3 nM
B24,–,–,Ki (human plasma kallikrein [3]): 3.6 nM
B25,–,–,Ki [4]: 14 nM; Ki [5]: 20 nM; Ki [6]: 0.22 nM
B26,–,–,Ki [4]: 4.7 nM; Ki [5]: 47 nM; Ki [6]: 0.13 nM
B27,–,–,Ki [4]: 0.14 nM; Ki [5]: 5.9 nM; Ki [6]: 0.09 nM
B28,–,–,Ki [4]: 0.23 nM; Ki [5]: 3.7 nM; Ki [6]: 0.16 nM
B29,–,–,Ki [4]: 0.26 nM; Ki [5]: 2.5 nM; Ki [6]: 0.18 nM
B30,–,–,Ki [7]: 0.25 nM
B31,–,–,Ki [7]: 0.34 nM
B32,–,–,Ki [7]: 0.35 nM
